Earlier results as cited in US20150246140A1, “COMPOSITIONS AND METHODS FOR MODULATING SLEEP AND WAKEFULNESS” (California Institute of Technology, priority 2014, published 2015).

Experiments:
NPR-22 = biological target: T1, NPR-22 (Caenorhabditis elegans, UniProt Q59E83); conditions: FLP-13 peptides P1-P9, FIG. 6 legend
T1 sequence (Q59E83 1-434): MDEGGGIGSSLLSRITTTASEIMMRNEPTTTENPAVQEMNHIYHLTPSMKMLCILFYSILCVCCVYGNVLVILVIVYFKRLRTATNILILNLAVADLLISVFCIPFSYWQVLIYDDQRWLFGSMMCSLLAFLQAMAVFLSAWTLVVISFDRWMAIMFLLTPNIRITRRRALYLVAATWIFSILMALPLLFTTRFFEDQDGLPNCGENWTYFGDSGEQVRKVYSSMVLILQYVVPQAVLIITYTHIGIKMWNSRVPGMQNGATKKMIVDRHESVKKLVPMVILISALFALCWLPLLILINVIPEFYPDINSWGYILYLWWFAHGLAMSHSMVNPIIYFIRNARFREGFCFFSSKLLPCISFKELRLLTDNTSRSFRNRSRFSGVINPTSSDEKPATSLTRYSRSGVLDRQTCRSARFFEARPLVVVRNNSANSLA

A. suum muscle strips = conditions: FLP-13 peptides P1-P9, FIG. 6 legend

## AADGAPLIRF [C. elegans RFamide peptide of gene flp-13; P2 and P4 are repeated copies]
NPR-22
  activate calcium response via NPR-22 using the fluorescence assay: can activate calcium response
A. suum muscle strips
  effect on A. suum muscle strips: inhibitory effects

## APEASPLIRF [C. elegans RFamide peptide of gene flp-13; P3 and P5 are repeated copies]
A. suum muscle strips
  effect on A. suum muscle strips: inhibitory effects

## ASPSAPLIRF [C. elegans RFamide peptide of gene flp-13]
NPR-22
  activate calcium response via NPR-22 using the fluorescence assay: can activate calcium response

## ASSAPLIRF [C. elegans RFamide peptide of gene flp-13]
NPR-22
  activate calcium response via NPR-22 using the fluorescence assay: can activate calcium response

## SAAAPLIRF [C. elegans RFamide peptide of gene flp-13]
NPR-22
  activate calcium response via NPR-22 using the fluorescence assay: can activate calcium response

## SPSAVPLIRF [C. elegans RFamide peptide of gene flp-13]
NPR-22
  activate calcium response via NPR-22 using the fluorescence assay: can activate calcium response
A. suum muscle strips
  effect on A. suum muscle strips: excitatory effect
